Measured values reported in patent US20110206686A1 (published 2011).
Values belong to the binder of their own block, whether it stands above or below them.

Legend:
[1] = biological target: T1, human IL-23 (human, UniProt Q9NPF7 20-189; P29460 23-328); experiment: blocking ELISA, optimised protocol (Example 6): antibody pre-incubated with constant human IL-23, binding to plate-coated human IL-23R Fc chimera detected with biotinylated anti-human IL-12, OD450; purified antibody
T1 construct: Heterodimer of p19 and p40; also called hIL-23; recombinant human IL-23
T1 sequence 1: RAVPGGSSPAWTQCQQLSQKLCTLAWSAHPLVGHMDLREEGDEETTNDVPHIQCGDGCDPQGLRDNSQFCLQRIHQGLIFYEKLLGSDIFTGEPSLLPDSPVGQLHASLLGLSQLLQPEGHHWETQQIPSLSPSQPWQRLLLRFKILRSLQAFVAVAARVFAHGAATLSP
T1 sequence 2: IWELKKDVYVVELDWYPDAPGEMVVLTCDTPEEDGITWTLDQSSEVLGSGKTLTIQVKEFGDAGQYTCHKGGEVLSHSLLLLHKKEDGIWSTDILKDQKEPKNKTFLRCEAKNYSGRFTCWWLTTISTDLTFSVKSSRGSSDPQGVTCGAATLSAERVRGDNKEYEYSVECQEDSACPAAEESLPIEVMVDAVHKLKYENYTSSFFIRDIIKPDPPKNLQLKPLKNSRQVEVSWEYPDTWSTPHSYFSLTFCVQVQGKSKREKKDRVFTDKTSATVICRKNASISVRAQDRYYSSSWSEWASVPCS
Method: Optimised protocol: Plates were coated with human IL23R Fc chimera at […] (phosphate buffered saline). 50 μl/well of this mixture was incubated overnight at 4° C. The plates were then washed three times with Phosphate Buffered Saline with 0.05% Tween 20 (PBST). Plates were blocked with 4% skim milk powder (Fluka BioChemika #70166) PBST 100 μl/well for a minimum of 1 hour at room temperature. The plates were then washed three times with Phosphate Buffered Saline+0.05% Tween 20 (PBST). Various concentrations of antibody were incubated in a separate plate with a constant concentration of IL-23 for 1 hour at room temperature. 50 ul of each mixture were transferred to the assay plate and incubated at RT for 1 hr. They were then washed three times with Phosphate Buffered Saline+0.05% Tween 20 (PBST). Bound IL23 was detected by anti human IL12 Biotin labelled Ab (R&D systems BAF219) diluted to 100 ng/ml in 4% skim milk powder (Fluka BioChemika #70166) PBST. 50 μl/well of the biotinylated antibody was added and incubated at RT for 1 hour. The plates were then washed three times with Phosphate Buffered Saline+0.05% Tween 20 (PBST). SA HRP (GE healthcare RPN4401) was diluted 1/4000 in 4% skim milk powder (Fluka BioChemika #70166) PBS, 50 μl/well was added to the plates. […] The plate was read at OD450 nm using the SOftmaxPRO versamax plate reader.

[2] = biological target: T1, human IL-23; experiment: blocking ELISA (Example 10): purified antibody pre-incubated with endogenous human IL-23 (5 ng/ml), binding to plate-coated recombinant human IL-23 receptor detected with biotinylated anti-human IL-12; 25% human pooled AB serum
Method: Recombinant human IL-23 Receptor (R&D systems 1400-IR-050) was coated onto 96 well plates at a concentration of 1 μg/ml. Endogenous human IL-23 at 5 ng/ml final, was pre incubated with a titration of purified mAbs before being added to the pre-coated plates. Detection was performed with biotinylated anti-human IL12 (R&D systems BAF-219), followed by Streptavidin-HRP (GE Healthcare RPN 4401). This neutralisation ELISA used 25% human pooled AB type serum. 8C92H₆, HC1LC1, and A3M0 retain their activity in human serum and inhibit binding of endogenous human IL-23 binding to human IL-23 receptor.

[3] = biological target: T1, human IL-23; experiment: blocking ELISA (Example 9): purified antibody pre-incubated with endogenous human IL-23 (3.5 ng/ml, from stimulated dendritic cells), binding to plate-coated recombinant human IL-23 receptor detected with biotinylated anti-human IL-12; 1% BSA
Method: Recombinant human IL-23 Receptor (R&D systems 1400-IR-050) was coated onto 96 well plates at a concentration of 1 μg/ml. Endogenous human IL-23 at 3.5 ng/ml final, was pre incubated for 1 hour with a titration of purified antibody material before being added to the pre-coated plates. Detection was performed with biotinylated anti-human IL12 (R&D systems BAF-219) followed by Streptavidin-HRP (GE Healthcare RPN 4401). This neutralisation ELISA used 1% BSA.

- IC50 (read off the curve) [1]: ~0.9 nM
B1: A3N2 (antibody, human IgG1, kappa, V domains shown)
VH: QVQLVQSGAEVKKPGSSVKVSCKASGYTFTSYGITWVRQAPGQGLEWMGENYPRSGNTYYNEKFKGRVTITADKSTSTAYMELSSLRSEDTAVYYCARSEFISTVVAPYYYALDYWGQGTLVTVSS
VL: DIVMTQTPLSLSVTPGQPASISCKASKKVTIFGSISALHWYLQKPGQPPQLIYNGAKLESGVSDRFSDSGSGTDFTLKISRVEAEDVGVYYCLQNKEVPYTFGGGTKVEIKR

- IC50 (read off the curve) [2]: ~20 ng/mL
B2: A3M0 (antibody, human IgG1, kappa, V domains shown)
VH: B1 VH
VL: DIVMTQSPDSLAVSLGERATINCKASKKVTIFGSISALHWYQQKPGQPPKLIYNGAKLESGVPDRFSGSGSGTDFTLTISSLQAEDVAVYYCLQNKEVPYTFGGGTKVEIKR
notes: Humanised, human gamma1 and kappa constant regions; also called A3M0 (humanised)

- IC50 (read off the curve) [3]: ~50 ng/mL
B3: murine mAb 8C9 2H6 (antibody, V domains shown)
VH: QVQLQQSGAELARPGTSVKLSCKASGYTFTSYGITWVKQRTGQGLEWIGENYPRSGNTYYNEKFKGKATLTADKSSSTAYMELRSLTSEDSAVYFCARCEFISTVVAPYYYALDYWGQGTSVTVSS
VL: DIVLTQSPASLAVSLGQKATISCKASKKVTIFGSISALHWYQQKPGQPPKLIYNGAKLESGVSARFSDSGSQNRSPFGNQLSFTLTIDPVEADDAATYYCLQNKEVPYTFGGGTKLEIK
notes: Murine hybridoma antibody; also called 8C92H6 (mouse parental); murine 8C92H6 mAb
